Source: patent publication US20250163140A1 (Kyowa Kirin, published 2025)

T1: Recombinant Human FGF-23 (R&D Systems, Cat No. 2604-FG-025/CF) (human, UniProt Q9GZV9 25-251)
T1 construct: Bought protein
T1 sequence (looked up): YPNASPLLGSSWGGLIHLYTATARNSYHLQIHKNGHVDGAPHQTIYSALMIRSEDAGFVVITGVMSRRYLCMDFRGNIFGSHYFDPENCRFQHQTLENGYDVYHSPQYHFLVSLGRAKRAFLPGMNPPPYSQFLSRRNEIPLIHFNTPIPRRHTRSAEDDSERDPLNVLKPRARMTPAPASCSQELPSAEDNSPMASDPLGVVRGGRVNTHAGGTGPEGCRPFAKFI


Key:
[1] = target: T1, Recombinant Human FGF-23 (R&D Systems, …); assay: SPR, antibody captured by anti-human IgG, FGF-23 analyte
[2] = target: T2, human FcRn (human FcRn-His tag with human β2 microglobulin) (human, UniProt P55899 24-297; P61769 21-119); assay: SPR pH 6, FcRn-His captured by anti-His, antibody analyte
T2 construct: also called h FcRn; hFcRn

[3] = target: T3, monkey FcRn (monkey FcRn-His tag with monkey β2 microglobulin) (cynomolgus monkey, UniProt Q8SPV9 24-297; Q8SPW0 21-119); assay: as above
T3 construct: also called cyno FcRn; cynomolgus monkey FcRn extracellular domain His-tag body
T3 sequence (Q8SPV9 other isoform, or with tags, fused parts or gaps limits assumed, chain 1 of 2): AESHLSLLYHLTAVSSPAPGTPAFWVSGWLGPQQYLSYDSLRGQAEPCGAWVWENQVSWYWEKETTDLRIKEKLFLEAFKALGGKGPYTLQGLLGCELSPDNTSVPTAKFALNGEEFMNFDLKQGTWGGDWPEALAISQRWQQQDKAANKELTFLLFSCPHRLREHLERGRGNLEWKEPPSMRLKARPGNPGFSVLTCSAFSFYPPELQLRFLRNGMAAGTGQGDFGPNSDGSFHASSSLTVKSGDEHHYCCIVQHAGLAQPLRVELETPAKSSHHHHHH
T3 sequence (Q8SPW0 21-119 limits assumed, chain 2 of 2): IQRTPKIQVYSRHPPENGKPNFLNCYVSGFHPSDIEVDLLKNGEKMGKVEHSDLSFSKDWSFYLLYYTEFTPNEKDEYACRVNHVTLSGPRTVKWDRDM

[4] = target: T1, Recombinant Human FGF-23 (R&D Systems, …); assay: cell-based or functional assay

Binder	Kd [1]	Kd [2]	Kd [3]	FGF23 neutralizing activity IC50 (luciferase promoter assay) [4]
antibody D105E (antibody, human IgG1, V domains shown, also called modified antibody D105) VH: QVQLVQSGAEVKKPGASVKVSCKASGYTFTNHYMHWVRQAPGQGLEWMGIINPISGSTSNAQKFQGRVTMTRDTSTSTVYMELSSLRSEDTAVYYCARDIVDAFEFWGQGTMVTVSS VL: AIQLTQSPSSLSASVGDRVTITCRASQGISSALVWYQQKPGKAPKLLIYDASSLESGVPSRFSGSGSGTDFTLTISSLQPEDFATYYCQQFNDYFTFGPGTKVDIK	0.017 nM	–	–	–
antibody A_A (antibody, human IgG1, name in EU numbering, not shown: human kappa chain constant region; copies: 2 + 2) heavy: not shown light: AIQLTQSPSSLSASVGDRVTITCRASQGISSALVWYQQKPGKAPKLLIYDASSLESGVPSRFSGSGSGTDFTLTISSLQPEDFATYYCQQFNDYFTFGPGTKVDIK	–	308 nM	155 nM	–
antibody A_P (antibody, human IgG1, name in EU numbering, positions are EU index; not shown: human kappa chain constant region; copies: 2 + 2) heavy: not shown light: AIQLTQSPSSLSASVGDRVTITCRASQGISSALVWYQQKPGKAPKLLIYDASSLESGVPSRFSGSGSGTDFTLTISSLQPEDFATYYCQQFNDYFTFGPGTKVDIK	–	183 nM	60.2 nM	–
antibody D105V (antibody, human IgG1, V domains shown, also called modified antibody D105) VH: QVQLVQSGAEVKKPGASVKVSCKASGYTFTNHYMHWVRQAPGQGLEWMGIINPISGSTSNAQKFQGRVTMTRDTSTSTVYMELSSLRSEDTAVYYCARDIVDAFVFWGQGTMVTVSS VL: AIQLTQSPSSLSASVGDRVTITCRASQGISSALVWYQQKPGKAPKLLIYDASSLESGVPSRFSGSGSGTDFTLTISSLQPEDFATYYCQQFNDYFTFGPGTKVDIK	0.263 nM	–	–	> 0.1 mg/L
antibody D105M (antibody, human IgG1, V domains shown, also called modified antibody D105) VH: QVQLVQSGAEVKKPGASVKVSCKASGYTFTNHYMHWVRQAPGQGLEWMGIINPISGSTSNAQKFQGRVTMTRDTSTSTVYMELSSLRSEDTAVYYCARDIVDAFMFWGQGTMVTVSS VL: AIQLTQSPSSLSASVGDRVTITCRASQGISSALVWYQQKPGKAPKLLIYDASSLESGVPSRFSGSGSGTDFTLTISSLQPEDFATYYCQQFNDYFTFGPGTKVDIK	0.671 nM	–	–	> 0.1 mg/L
antibody D105K (antibody, human IgG1, V domains shown, also called modified antibody D105) VH: QVQLVQSGAEVKKPGASVKVSCKASGYTFTNHYMHWVRQAPGQGLEWMGIINPISGSTSNAQKFQGRVTMTRDTSTSTVYMELSSLRSEDTAVYYCARDIVDAFKFWGQGTMVTVSS VL: AIQLTQSPSSLSASVGDRVTITCRASQGISSALVWYQQKPGKAPKLLIYDASSLESGVPSRFSGSGSGTDFTLTISSLQPEDFATYYCQQFNDYFTFGPGTKVDIK	0.262 nM	–	–	0.0457 mg/L
antibody D105R (antibody, human IgG1, V domains shown, also called modified antibody D105) VH: QVQLVQSGAEVKKPGASVKVSCKASGYTFTNHYMHWVRQAPGQGLEWMGIINPISGSTSNAQKFQGRVTMTRDTSTSTVYMELSSLRSEDTAVYYCARDIVDAFRFWGQGTMVTVSS VL: AIQLTQSPSSLSASVGDRVTITCRASQGISSALVWYQQKPGKAPKLLIYDASSLESGVPSRFSGSGSGTDFTLTISSLQPEDFATYYCQQFNDYFTFGPGTKVDIK	1.91 nM	–	–	> 0.1 mg/L
antibody D105Q (antibody, human IgG1, V domains shown, also called modified antibody D105) VH: QVQLVQSGAEVKKPGASVKVSCKASGYTFTNHYMHWVRQAPGQGLEWMGIINPISGSTSNAQKFQGRVTMTRDTSTSTVYMELSSLRSEDTAVYYCARDIVDAFQFWGQGTMVTVSS VL: AIQLTQSPSSLSASVGDRVTITCRASQGISSALVWYQQKPGKAPKLLIYDASSLESGVPSRFSGSGSGTDFTLTISSLQPEDFATYYCQQFNDYFTFGPGTKVDIK	0.252 nM	–	–	> 0.1 mg/L

More lines, in order of falling Kd [1], values ahead:

Kd [1]	Kd [2]	Kd [3]	FGF23 neutralizing activity IC50 (luciferase promoter assay) [4]	Binder
0.201 nM	–	–	0.0992 mg/L	antibody D105P (antibody, human IgG1, V domains shown, also called modified antibody D105) VH: QVQLVQSGAEVKKPGASVKVSCKASGYTFTNHYMHWVRQAPGQGLEWMGIINPISGSTSNAQKFQGRVTMTRDTSTSTVYMELSSLRSEDTAVYYCARDIVDAFPFWGQGTMVTVSS VL: AIQLTQSPSSLSASVGDRVTITCRASQGISSALVWYQQKPGKAPKLLIYDASSLESGVPSRFSGSGSGTDFTLTISSLQPEDFATYYCQQFNDYFTFGPGTKVDIK
0.178 nM	–	–	> 0.1 mg/L	antibody D105F (antibody, human IgG1, V domains shown, also called modified antibody D105) VH: QVQLVQSGAEVKKPGASVKVSCKASGYTFTNHYMHWVRQAPGQGLEWMGIINPISGSTSNAQKFQGRVTMTRDTSTSTVYMELSSLRSEDTAVYYCARDIVDAFFFWGQGTMVTVSS VL: AIQLTQSPSSLSASVGDRVTITCRASQGISSALVWYQQKPGKAPKLLIYDASSLESGVPSRFSGSGSGTDFTLTISSLQPEDFATYYCQQFNDYFTFGPGTKVDIK
0.149 nM	–	–	0.0779 mg/L	antibody D105W (antibody, human IgG1, V domains shown, also called modified antibody D105) VH: QVQLVQSGAEVKKPGASVKVSCKASGYTFTNHYMHWVRQAPGQGLEWMGIINPISGSTSNAQKFQGRVTMTRDTSTSTVYMELSSLRSEDTAVYYCARDIVDAFWFWGQGTMVTVSS VL: AIQLTQSPSSLSASVGDRVTITCRASQGISSALVWYQQKPGKAPKLLIYDASSLESGVPSRFSGSGSGTDFTLTISSLQPEDFATYYCQQFNDYFTFGPGTKVDIK
0.143 nM	–	–	0.0467 mg/L	antibody D105H (antibody, human IgG1, V domains shown, also called modified antibody D105) VH: QVQLVQSGAEVKKPGASVKVSCKASGYTFTNHYMHWVRQAPGQGLEWMGIINPISGSTSNAQKFQGRVTMTRDTSTSTVYMELSSLRSEDTAVYYCARDIVDAFHFWGQGTMVTVSS VL: AIQLTQSPSSLSASVGDRVTITCRASQGISSALVWYQQKPGKAPKLLIYDASSLESGVPSRFSGSGSGTDFTLTISSLQPEDFATYYCQQFNDYFTFGPGTKVDIK
0.106 nM	–	–	0.0278 mg/L	antibody D105S (antibody, human IgG1, V domains shown, also called modified antibody D105) VH: QVQLVQSGAEVKKPGASVKVSCKASGYTFTNHYMHWVRQAPGQGLEWMGIINPISGSTSNAQKFQGRVTMTRDTSTSTVYMELSSLRSEDTAVYYCARDIVDAFSFWGQGTMVTVSS VL: AIQLTQSPSSLSASVGDRVTITCRASQGISSALVWYQQKPGKAPKLLIYDASSLESGVPSRFSGSGSGTDFTLTISSLQPEDFATYYCQQFNDYFTFGPGTKVDIK
0.102 nM	–	–	0.0216 mg/L	antibody D105Y (antibody, human IgG1, V domains shown, also called modified antibody D105) VH: QVQLVQSGAEVKKPGASVKVSCKASGYTFTNHYMHWVRQAPGQGLEWMGIINPISGSTSNAQKFQGRVTMTRDTSTSTVYMELSSLRSEDTAVYYCARDIVDAFYFWGQGTMVTVSS VL: AIQLTQSPSSLSASVGDRVTITCRASQGISSALVWYQQKPGKAPKLLIYDASSLESGVPSRFSGSGSGTDFTLTISSLQPEDFATYYCQQFNDYFTFGPGTKVDIK
0.0975 nM	–	–	0.0331 mg/L	antibody D105G (antibody, human IgG1, V domains shown, also called modified antibody D105) VH: QVQLVQSGAEVKKPGASVKVSCKASGYTFTNHYMHWVRQAPGQGLEWMGIINPISGSTSNAQKFQGRVTMTRDTSTSTVYMELSSLRSEDTAVYYCARDIVDAFGFWGQGTMVTVSS VL: AIQLTQSPSSLSASVGDRVTITCRASQGISSALVWYQQKPGKAPKLLIYDASSLESGVPSRFSGSGSGTDFTLTISSLQPEDFATYYCQQFNDYFTFGPGTKVDIK
0.0734 nM	–	–	0.0237 mg/L	antibody D105I (antibody, human IgG1, V domains shown, also called modified antibody D105) VH: QVQLVQSGAEVKKPGASVKVSCKASGYTFTNHYMHWVRQAPGQGLEWMGIINPISGSTSNAQKFQGRVTMTRDTSTSTVYMELSSLRSEDTAVYYCARDIVDAFIFWGQGTMVTVSS VL: AIQLTQSPSSLSASVGDRVTITCRASQGISSALVWYQQKPGKAPKLLIYDASSLESGVPSRFSGSGSGTDFTLTISSLQPEDFATYYCQQFNDYFTFGPGTKVDIK
0.0639 nM	–	–	0.0256 mg/L	antibody D105L (antibody, human IgG1, V domains shown, also called modified antibody D105) VH: QVQLVQSGAEVKKPGASVKVSCKASGYTFTNHYMHWVRQAPGQGLEWMGIINPISGSTSNAQKFQGRVTMTRDTSTSTVYMELSSLRSEDTAVYYCARDIVDAFLFWGQGTMVTVSS VL: AIQLTQSPSSLSASVGDRVTITCRASQGISSALVWYQQKPGKAPKLLIYDASSLESGVPSRFSGSGSGTDFTLTISSLQPEDFATYYCQQFNDYFTFGPGTKVDIK
0.046 nM	–	–	0.014 mg/L	antibody D105N (antibody, human IgG1, V domains shown, also called modified antibody D105) VH: QVQLVQSGAEVKKPGASVKVSCKASGYTFTNHYMHWVRQAPGQGLEWMGIINPISGSTSNAQKFQGRVTMTRDTSTSTVYMELSSLRSEDTAVYYCARDIVDAFNFWGQGTMVTVSS VL: AIQLTQSPSSLSASVGDRVTITCRASQGISSALVWYQQKPGKAPKLLIYDASSLESGVPSRFSGSGSGTDFTLTISSLQPEDFATYYCQQFNDYFTFGPGTKVDIK
